Laboratory results as given in patent US20260234660A1 (Regeneron, published 2026).

B1: H2aM31929N/REGN10728 (antibody, human IgG4 S228P, kappa, V domains shown)
VH: QVQLVESGGGVVQPGRSLRLSCTASGITFRNYGMHWVRQAPGKGLEWVAVMWYDGSNKYYADSVKGRFTISGDNSKVYLQMNSLRAEDTAVYYCARRGTIRTAAPFDYWGQGTLVTVSS
VL: not shown
notes: also called antibody designation 1
B2: H2aM31941N (antibody, V domains shown)
VH: QVQLVQSGAEVKKPGASVKVSCKASGYAFTTYGITWVRQAPGQGLEWMGWISAYNGNTNYAEKVQGRFTMTTDTSTNTAYMELRSLRSDDTAVYFCARKGHYGSGTYYNPFGFDFWGQGTMVTVSS
VL: EIMLMQSPGTLSLSPGERATLSCRASQSVSSSYLAWYQQKPGQAPRLLIYGASSRATDIPDRFSGSGSGTDFTLTISRLEPEDFAVYFCQQYYGSPWTFGQGTKVEIK
notes: also called antibody designation 8
B3: REGN7660 (antibody, human IgG4 S228P, kappa, V domains shown)
VH: EVQLVESGGGLVQPGGSLKLSCTASGLTLSDSAMHWVRQASGKGLEWVGRIRNKANRYATEYAASVKGRFTISRDDSKNTAYLQMNSLKTEDTAVYYCTRNWKIFLFDYWGQGTLVTVSS
VL: EIVLTQSPGTLTLSPGERATLSCRASQSVGSKYLAWFQQKRGQAPRLLIYGASSRTSGIPDRISGSGSGTDFTLTISRLEPEDFAVYYCQQYGSSPWTFGQGTKVEIKR
notes: also called antibody designation 9
B4: REGN9909 (antibody, mouse IgG2a, kappa, V domains shown)
VH: EVQLLESGGGLVQPGGSLRLSCAASGFTFNNYGMSWVRQGPGKGLEWVSSISGSGGTTFYADSVKGRFTISRDNSKNTLYLQMNSLRAEDTAVYYCGKGGYCSSSGCRHYGMDVWGQGTTVTVSS
VL: QSVLTQPPSASGTPGQRVTISCSGSSSNIGNNYIYWYQRLPGTTPKLLIYRNNQRPSGVPDRFSGSKSGTSASLAISGLRSEDEADYYCAAWDDTLSGYVFGTGTKVTVLR
notes: also called antibody designation 10
B5: REGN10713 (antibody, human IgG4 S228P, lambda, V domains shown)
VH: EVQLVESGGNLVQPGGSLRLSCAASGFTFTSHAMNWVRQAPGKGLEWVSVITGRGFDTHYADSVKGRFTISRDISKNTLYLQMNSLRAEDTAVYYCAKGLYDSGNYYIDYWGQGTLVTVSS
VL: QSVLTQPPSVSAAPGQKVTISCSGSSSNIGNNYVSWYQQLPGTAPKLLIYDNNKRPSGIPDRFSGSKSGTSATLGITGLQTGDEADYYCGTWDLSLSFNWVFGGGTKLTVLG
notes: also called antibody designation 11
B6: REGN10715 (antibody, human IgG4 S228P, kappa, V domains shown)
VH: QVQLQQWGAGLLKPSATLSRTCAVYGGSFSGYYWNWIRQSPGKGLEWIGEILHSGRTNYNPSLKSRVTISVDTSKNQFSLKLTSVTAADTAVYYCAGRIAARHGWFDPWGQGTLVTVSS
VL: DIQMTQSPSSVSTSVGDRVTISCRASQDIRKWLAWYQQKPGKAPKLLIYATSSLQSGVPSRFSGSGSGTDFTLTISSLQPEDFATYFCQQANSFPFTFGQGTKLEIKR
notes: also called antibody designation 2
B7: REGN10716 (antibody, human IgG4 S228P, kappa, V domains shown)
VH: QVQLQESGPGLVKPSETLSLTCTVSGDSINNYYWTWLRQPPGKGLEWIGYIYYSGSANYNPSLKSRVTISVDTSKNQFSLKLNSVTAADTAVYYCARGAVKYFRHWGQGTLVTVSS
VL: EIVLTQSPGTLSLSPGERATLSCRASQTINHNNLAWYQQRPGQAPRLLIYGASNRATAIPDRFSGSGSGTDFTLTISRLEPEDFEVYSCQQYGSLPLTFGGGTKVEIKR
notes: also called antibody designation 4
B8: REGN10717 (antibody, human IgG4 S228P, kappa, V domains shown)
VH: QVQLVESGGGVVQPGRSLRLSCAASGFTFSTYGMHWVRQAPGKGLEWVAVIWHDGSDKYYVDSVKGRFSIARDNSKNTLYLQMNSLRVEDTGIYYCARRGIRGTVFDHWGLGTLVTVSS
VL: DIQMTQSPSTLSASVGDRVTLTCRASQSISNKLAWYQQKPGKAPNLLIYKASNLESGVPSRFSGSGSGTEFTLTISSLQPDDFATYYCQQYNSYSWTFGQGTKVEIKR
notes: also called antibody designation 3
B9: REGN10783 (antibody, human IgG4 S228P, kappa, V domains shown)
VH: QVQLVESGGGVVQPGTSLRLSCAASGFTFSSYGMHWVRQAPGKGLEWVAVIWIDGSNKYYADSVKGRFTISRDNSKNTLYLQMNSLRAEDTAVYYCARRGGIVVAAPFDYWGQGTLVTVSS
VL: not shown
notes: also called antibody designation 5

Target: T1, nanodisc embedded human CACNG1 expressed with a C-terminal PADRE-Flag-His tag (human, UniProt Q06432 1-222)
T1 construct: Membrane protein (gamma-1 subunit of the skeletal muscle L-type calcium channel) in a nanodisc; also called human CACNG1 nanodisc; CACNG1 nanodisc; not shown: C-terminal PADRE-Flag-His tag
T1 sequence (Q06432 whole entry): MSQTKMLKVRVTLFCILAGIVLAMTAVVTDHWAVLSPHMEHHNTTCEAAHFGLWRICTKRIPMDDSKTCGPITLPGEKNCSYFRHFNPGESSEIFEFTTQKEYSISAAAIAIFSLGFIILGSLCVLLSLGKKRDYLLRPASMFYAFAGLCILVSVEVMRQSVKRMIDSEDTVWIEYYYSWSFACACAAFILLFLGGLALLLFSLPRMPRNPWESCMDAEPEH
Test: SPR (Biacore T200), 25 C, anti-His-captured human CACNG1 nanodisc, antibody as analyte
Experimental: Equilibrium dissociation constants (KD values) for nanodisc embedded human CACNG1 expressed with a C-terminal PADRE-Flag-His tag (human CACNG1 nanodisc) binding to purified anti-hCACNG1 antibodies were determined using a real-time surface plasmon resonance biosensor technology with a Biacore T200 instrument. The CM5 Biacore sensor surface was derivatized by amine coupling with a monoclonal mouse anti-His antibody (Cytiva; Marlborough, MA). All Biacore binding studies were performed in a buffer composed of 0.01M HEPES, 0.15M NaCl, 1 mM CaCl₂), 0.5 mM MgCl₂, pH 7.4 (HBS-N++ running buffer). Different concentrations of anti-hCACNG1 antibodies (ranging from 300 nM to 12 nM in 5-fold serial dilutions) prepared in HBS-N++ running buffer were injected over the captured human CACNG1 nanodisc at a flow rate of 30 μL/minute. Antibody association was monitored for 2 minutes while dissociation was monitored in HBS-N++ running buffer for 5 minutes. At the end of each cycle, the human CACNG1 nanodisc capture surface was regenerated using three 10 second injections of 10 mM Gly pH1.5. All binding kinetics experiments were performed at 25° C.

**Q.** With B1 as the binder, how does the “mAb Bound at 300 nM (RU)” value read?
**A.** Its value is 25 RU.

**Q.** With B2 as the binder, how does the “mAb Bound at 300 nM (RU)” value read?
**A.** The value was 19 RU.

**Q.** For B3, which “mAb Bound at 300 nM (RU)” value is on record?
**A.** The value was 23 RU.

**Q.** For B4, which “mAb Bound at 300 nM (RU)” value is on record?
**A.** The value was 22 RU.

**Q.** Which “mAb Bound at 300 nM (RU)” value does the source give for B5 here?
**A.** Its value is 53 RU.

**Q.** With B6 as the binder, how does the “mAb Bound at 300 nM (RU)” value read?
**A.** Its value is 31 RU.

**Q.** Which “mAb Bound at 300 nM (RU)” value does the source give for B7 here?
**A.** Its value is 31 RU.

**Q.** For B8, which “mAb Bound at 300 nM (RU)” value is on record?
**A.** Its value is 7 RU.

**Q.** Which “mAb Bound at 300 nM (RU)” value does the source give for B9 here?
**A.** The value was 9 RU.
